Reference: article PMC9482650, “Quantitative fragmentomics allow affinity mapping of interactomes” (Nature Communications, 2022)

T1: HTRA4, P83105
T1 sequence (P83105 378-476, limits assumed, looked up): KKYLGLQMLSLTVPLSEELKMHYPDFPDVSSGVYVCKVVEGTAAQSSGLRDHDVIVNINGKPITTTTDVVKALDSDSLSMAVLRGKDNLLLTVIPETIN

T2: SYNJ2BP, P57105
T2 sequence (P57105 8-110, limits assumed, looked up): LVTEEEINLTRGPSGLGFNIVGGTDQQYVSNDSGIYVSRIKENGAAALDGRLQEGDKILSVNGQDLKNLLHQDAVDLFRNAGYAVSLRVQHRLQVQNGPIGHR

T3: SIPA1L2, Q9P2F8
T3 sequence (Q9P2F8 945-1036, limits assumed, looked up): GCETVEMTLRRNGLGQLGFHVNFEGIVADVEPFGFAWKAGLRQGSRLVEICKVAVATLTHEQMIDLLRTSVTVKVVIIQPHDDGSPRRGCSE

T4: APBA3_1, O96018
T4 sequence (O96018 389-490, limits assumed, looked up): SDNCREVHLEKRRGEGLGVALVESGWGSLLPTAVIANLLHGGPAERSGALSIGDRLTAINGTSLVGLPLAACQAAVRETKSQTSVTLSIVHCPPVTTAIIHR

T5: MPDZ_10, O75970
T5 sequence (O75970 1624-1722, limits assumed, looked up): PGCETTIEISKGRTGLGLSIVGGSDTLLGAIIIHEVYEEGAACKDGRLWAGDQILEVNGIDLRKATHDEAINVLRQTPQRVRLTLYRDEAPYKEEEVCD

T6: ARHGAP21, Q5T5U3
T6 sequence (Q5T5U3 45-169, limits assumed, looked up): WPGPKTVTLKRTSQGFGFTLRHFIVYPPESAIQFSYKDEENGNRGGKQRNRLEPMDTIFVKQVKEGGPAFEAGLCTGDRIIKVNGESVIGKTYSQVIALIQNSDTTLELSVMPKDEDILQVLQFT

T7: NHERF3_4, Q5T2W1
T7 sequence (Q5T2W1 373-468, limits assumed, looked up): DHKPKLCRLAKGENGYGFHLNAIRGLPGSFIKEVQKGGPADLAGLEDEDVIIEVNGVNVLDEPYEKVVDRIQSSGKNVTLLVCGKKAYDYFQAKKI

T8: PTPN13_1, Q12923
T8 sequence (Q12923 1088-1188, limits assumed, looked up): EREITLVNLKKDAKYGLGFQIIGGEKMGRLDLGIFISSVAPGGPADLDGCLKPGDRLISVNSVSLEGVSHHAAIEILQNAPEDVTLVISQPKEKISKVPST

T9: APBA2_2, Q99767
T9 sequence (Q99767 654-744, limits assumed, looked up): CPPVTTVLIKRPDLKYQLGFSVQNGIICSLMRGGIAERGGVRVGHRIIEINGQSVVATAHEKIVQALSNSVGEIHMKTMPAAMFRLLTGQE

T10: LIN7B, Q9HAP6
T10 sequence (Q9HAP6 88-185, limits assumed, looked up): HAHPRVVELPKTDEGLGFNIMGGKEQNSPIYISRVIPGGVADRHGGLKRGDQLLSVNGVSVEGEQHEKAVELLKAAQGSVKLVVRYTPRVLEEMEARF

T11: FRMPD1, Q5SYB0
T11 sequence (Q5SYB0 52-145, limits assumed, looked up): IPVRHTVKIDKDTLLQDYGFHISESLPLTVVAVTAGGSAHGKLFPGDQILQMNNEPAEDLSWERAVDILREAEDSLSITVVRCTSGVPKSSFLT

T12: APBA1_2, Q02410
T12 sequence (Q02410 742-832, limits assumed, looked up): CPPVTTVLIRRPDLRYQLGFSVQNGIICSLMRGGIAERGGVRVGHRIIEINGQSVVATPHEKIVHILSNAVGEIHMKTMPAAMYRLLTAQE

T13: PDZD7_3, Q9H5P4
T13 sequence (Q9H5P4 857-944, limits assumed, looked up): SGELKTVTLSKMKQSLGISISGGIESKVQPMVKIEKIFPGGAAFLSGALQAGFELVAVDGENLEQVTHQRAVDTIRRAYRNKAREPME


Columns and labels:
Test in all cases: holdup assay
Parameters in all cases: key: below the threshold = too weak to quantify, mostly under pKd 3.1 to 4
Conditions in all cases: plain residues with an end cap or a label only (N-terminal biotin on a linker: ado-ado)
[1] = target: T1, HTRA4, P83105
[2] = target: MAST2, Q6P0Q8
[3] = target: Inadl_2, Q8NI35
[4] = target: T2, SYNJ2BP, P57105
[5] = target: T3, SIPA1L2, Q9P2F8
[6] = target: GIPC2, Q8TF65
[7] = target: T4, APBA3_1, O96018
[8] = target: T5, MPDZ_10, O75970
[9] = target: T6, ARHGAP21, Q5T5U3
[10] = target: GRASP, Q7Z6J2
[11] = target: DLG1_1, Q12959
[12] = target: T7, NHERF3_4, Q5T2W1
[13] = target: MAGI2_4, Q86UL8
[14] = target: T8, PTPN13_1, Q12923
[15] = target: GRIP2_3, Q9C0E4
[16] = target: T9, APBA2_2, Q99767
[17] = target: T10, LIN7B, Q9HAP6
[18] = target: TJP2_1, Q9UDY2
[19] = target: T11, FRMPD1, Q5SYB0
[20] = target: T12, APBA1_2, Q02410
[21] = target: T13, PDZD7_3, Q9H5P4
[22] = target: MAGI3_2, Q5TCQ9
[23] = target: PDLIM1, O00151
[24] = target: GRIP2_7, Q9C0E4
[25] = target: SNX27, Q96L92

Sequence of GRASP, Q7Z6J2 (Q7Z6J2 96-193): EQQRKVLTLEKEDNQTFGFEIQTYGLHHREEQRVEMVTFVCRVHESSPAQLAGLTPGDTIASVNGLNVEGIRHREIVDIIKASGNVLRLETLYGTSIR
Sequence of Inadl_2, Q8NI35 (Q8NI35 238-335): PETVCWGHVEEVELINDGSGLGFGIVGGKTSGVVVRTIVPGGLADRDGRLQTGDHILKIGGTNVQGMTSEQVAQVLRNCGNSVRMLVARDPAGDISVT
Sequence of GRIP2_3, Q9C0E4 (Q9C0E4 238-339): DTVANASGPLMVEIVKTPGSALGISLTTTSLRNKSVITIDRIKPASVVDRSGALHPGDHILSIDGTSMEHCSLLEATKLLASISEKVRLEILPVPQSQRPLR
Sequence of GRIP2_7, Q9C0E4 (Q9C0E4 934-1023): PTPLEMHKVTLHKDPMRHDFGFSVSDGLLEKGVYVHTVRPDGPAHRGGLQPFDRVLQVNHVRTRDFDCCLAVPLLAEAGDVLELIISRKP
Sequence of MAST2, Q6P0Q8 (Q6P0Q8 1099-1202): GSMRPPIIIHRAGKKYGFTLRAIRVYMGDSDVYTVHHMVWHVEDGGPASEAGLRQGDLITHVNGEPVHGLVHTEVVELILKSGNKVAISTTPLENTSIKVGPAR
Sequence of GIPC2, Q8TF65 (Q8TF65 112-203): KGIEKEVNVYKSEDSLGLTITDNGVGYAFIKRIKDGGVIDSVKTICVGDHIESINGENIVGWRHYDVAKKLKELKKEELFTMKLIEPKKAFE
Sequence of PDLIM1, O00151 (O00151 1-87): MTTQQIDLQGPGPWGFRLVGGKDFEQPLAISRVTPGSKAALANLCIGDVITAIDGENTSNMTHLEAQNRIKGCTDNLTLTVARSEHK
Sequence of MAGI3_2, Q5TCQ9 (Q5TCQ9 398-503): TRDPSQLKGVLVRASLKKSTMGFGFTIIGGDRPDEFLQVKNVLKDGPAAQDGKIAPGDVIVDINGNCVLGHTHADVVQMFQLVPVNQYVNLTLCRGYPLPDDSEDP
Sequence of TJP2_1, Q9UDY2 (Q9UDY2 24-128): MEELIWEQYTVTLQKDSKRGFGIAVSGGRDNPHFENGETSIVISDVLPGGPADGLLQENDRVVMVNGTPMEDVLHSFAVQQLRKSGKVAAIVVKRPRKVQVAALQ
Sequence of MAGI2_4, Q86UL8 (Q86UL8 772-865): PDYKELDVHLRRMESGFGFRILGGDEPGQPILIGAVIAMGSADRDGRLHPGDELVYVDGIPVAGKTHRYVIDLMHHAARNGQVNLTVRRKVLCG

pKd [1] | pKd [2] | pKd [3] | pKd [4] | pKd [5] | pKd [6] | pKd [7] | pKd [8] | pKd [9] | pKd [10] | pKd [11] | pKd [12] | pKd [13] | pKd [14] | pKd [15] | pKd [16] | pKd [17] | pKd [18] | pKd [19] | pKd [20] | Binder | further results
3.92 | 4.83 | below the threshold | 3.5 | below the threshold | 3.65 | below the threshold | below the threshold | 4.22 | 4.16 | below the threshold | 3.79 | 3.47 | below the threshold | below the threshold | below the threshold | below the threshold | below the threshold | below the threshold | 4.16 | DSEEELPTRL [GRK6, P43250] | pKd [21]: 4.18; pKd [22]: below the threshold; pKd [23]: below the threshold; pKd [24]: below the threshold; pKd [25]: 3.85
3.85 | 5.15 | below the threshold | 3.82 | below the threshold | below the threshold | below the threshold | below the threshold | 4.17 | 4.33 | below the threshold | 3.64 | below the threshold | below the threshold | below the threshold | below the threshold | 3.52 | below the threshold | below the threshold | below the threshold | RDYTQSSSSL [GRM5, P41594] | pKd [21]: below the threshold; pKd [22]: below the threshold; pKd [23]: below the threshold; pKd [24]: below the threshold; pKd [25]: 4.25
below the threshold | 4.95 | below the threshold | below the threshold | below the threshold | below the threshold | below the threshold | below the threshold | below the threshold | below the threshold | below the threshold | below the threshold | 3.88 | below the threshold | below the threshold | below the threshold | 3.96 | below the threshold | below the threshold | below the threshold | QKASRNESTF [POLR1D, P0DPB6] | pKd [21]: 3.71; pKd [22]: below the threshold; pKd [23]: below the threshold; pKd [24]: below the threshold; pKd [25]: 4.29
below the threshold | 4.17 | below the threshold | below the threshold | below the threshold | below the threshold | below the threshold | below the threshold | below the threshold | below the threshold | below the threshold | below the threshold | below the threshold | below the threshold | below the threshold | below the threshold | 3.78 | below the threshold | below the threshold | below the threshold | KPDKQEEFYA [SDC3, O75056] | pKd [21]: below the threshold; pKd [22]: below the threshold; pKd [23]: below the threshold; pKd [24]: below the threshold; pKd [25]: below the threshold
